The text below walks through data of patent CN114736293A.

The assay concerns the target SARS-CoV-2 S蛋白(spike protein)，展示于假病毒表面 (SARS-CoV-2) (UniProt P0DTC2). Kind of assay: cell-based or functional assay.

For “自组装铁蛋白融合纳米抗体Ferritin-H11-D4(家蚕杆状病毒表达系统表达)”, the IC50(假病毒中和试验) came to 2.19 nM, the 中和活性，相对大肠杆菌表达的铁蛋白融合蛋白的倍数 was determined as 20 fold and the 对假病毒的中和活性，相对单独表达的纳米抗体H11-D4的倍数 came out at 8 fold.
